For this experiment, the target named is human IL13 (human) (UniProt P35225). Kind of experiment: cell-based or functional assay.
human IL13 (human), sequence (P35225 other isoform, or with tags, fused parts or gaps limits assumed): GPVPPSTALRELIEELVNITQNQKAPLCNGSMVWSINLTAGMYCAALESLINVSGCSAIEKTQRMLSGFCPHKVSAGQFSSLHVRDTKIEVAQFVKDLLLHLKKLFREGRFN

In turn, “anti-IL13 MAb JES10-5A2 (BD Biosciences-Pharmingen) (antibody)” came in with a concentration for complete inhibition of IL13-suppressed CD14 expression on human monocytes (0.813 nM IL13) above 80 nM.

Values taken from US20120156203A1.
